Results taken from patent publication US20210388087A1 (Chugai, published 2021).

What follows are binders tested against T1, CD3 epsilon homodimer protein (UniProt P07766 23-126) (assay: SPR, antibody over immobilised CD3e homodimer;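 further: SPR at 25 °C with CD3 epsilon homodimer amine-coupled to a CM4 sensor chip and antibody flowed over as analyte in HBS-EP+ running buffer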).
T1 construct: also called CD3 (CD3 epsilon)
T1 sequence (P07766 23-126): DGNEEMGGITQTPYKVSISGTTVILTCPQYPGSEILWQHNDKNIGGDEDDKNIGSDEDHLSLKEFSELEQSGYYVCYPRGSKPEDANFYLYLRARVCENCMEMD

Binder | KD ratio to GLS3000
CE115HA000/GLS3000 S25V (antibody, IgG1, name in Kabat numbering, V domains shown, one-arm IgG1) VH: QVQLVESGGGVVQPGRSLRLSCAASGFTFSNAWMHWVRQAPGKGLEWVAQIKAKSNNYATYYAESVKGRFTISRDDSKNSLYLQMNSLKTEDTAVYYCRYVHYGAYYGVDAWGQGTTVTVSS VL: DIVMTQSPLSLPVTPGEPASISCRVSQSLVHSNRNTYLHWYQQKPGQAPRLLIYKVSNRFSGVPDRFSGSGSGTDFTLKISRVEAEDVGVYYCGQGTQVPYTFGQGTKLEIK | 0.74
CE115HA000/GLS3000 S26D (antibody, IgG1, name in Kabat numbering, V domains shown, one-arm IgG1) VH: QVQLVESGGGVVQPGRSLRLSCAASGFTFSNAWMHWVRQAPGKGLEWVAQIKAKSNNYATYYAESVKGRFTISRDDSKNSLYLQMNSLKTEDTAVYYCRYVHYGAYYGVDAWGQGTTVTVSS VL: DIVMTQSPLSLPVTPGEPASISCRSDQSLVHSNRNTYLHWYQQKPGQAPRLLIYKVSNRFSGVPDRFSGSGSGTDFTLKISRVEAEDVGVYYCGQGTQVPYTFGQGTKLEIK | 1.06
CE115HA000/GLS3000 S26E (antibody, IgG1, name in Kabat numbering, V domains shown, one-arm IgG1) VH: QVQLVESGGGVVQPGRSLRLSCAASGFTFSNAWMHWVRQAPGKGLEWVAQIKAKSNNYATYYAESVKGRFTISRDDSKNSLYLQMNSLKTEDTAVYYCRYVHYGAYYGVDAWGQGTTVTVSS VL: DIVMTQSPLSLPVTPGEPASISCRSEQSLVHSNRNTYLHWYQQKPGQAPRLLIYKVSNRFSGVPDRFSGSGSGTDFTLKISRVEAEDVGVYYCGQGTQVPYTFGQGTKLEIK | 0.9
CE115HA000/GLS3000 S26P (antibody, IgG1, name in Kabat numbering, V domains shown, one-arm IgG1) VH: QVQLVESGGGVVQPGRSLRLSCAASGFTFSNAWMHWVRQAPGKGLEWVAQIKAKSNNYATYYAESVKGRFTISRDDSKNSLYLQMNSLKTEDTAVYYCRYVHYGAYYGVDAWGQGTTVTVSS VL: DIVMTQSPLSLPVTPGEPASISCRSPQSLVHSNRNTYLHWYQQKPGQAPRLLIYKVSNRFSGVPDRFSGSGSGTDFTLKISRVEAEDVGVYYCGQGTQVPYTFGQGTKLEIK | 0.67
CE115HA000/GLS3000 S27aD (antibody, IgG1, name in Kabat numbering, V domains shown, one-arm IgG1) VH: QVQLVESGGGVVQPGRSLRLSCAASGFTFSNAWMHWVRQAPGKGLEWVAQIKAKSNNYATYYAESVKGRFTISRDDSKNSLYLQMNSLKTEDTAVYYCRYVHYGAYYGVDAWGQGTTVTVSS VL: DIVMTQSPLSLPVTPGEPASISCRSSQDLVHSNRNTYLHWYQQKPGQAPRLLIYKVSNRFSGVPDRFSGSGSGTDFTLKISRVEAEDVGVYYCGQGTQVPYTFGQGTKLEIK | 0.94
CE115HA000/GLS3000 S27aE (antibody, IgG1, name in Kabat numbering, V domains shown, one-arm IgG1) VH: QVQLVESGGGVVQPGRSLRLSCAASGFTFSNAWMHWVRQAPGKGLEWVAQIKAKSNNYATYYAESVKGRFTISRDDSKNSLYLQMNSLKTEDTAVYYCRYVHYGAYYGVDAWGQGTTVTVSS VL: DIVMTQSPLSLPVTPGEPASISCRSSQELVHSNRNTYLHWYQQKPGQAPRLLIYKVSNRFSGVPDRFSGSGSGTDFTLKISRVEAEDVGVYYCGQGTQVPYTFGQGTKLEIK | 0.94
CE115HA000/GLS3000 S27aG (antibody, IgG1, name in Kabat numbering, V domains shown, one-arm IgG1) VH: QVQLVESGGGVVQPGRSLRLSCAASGFTFSNAWMHWVRQAPGKGLEWVAQIKAKSNNYATYYAESVKGRFTISRDDSKNSLYLQMNSLKTEDTAVYYCRYVHYGAYYGVDAWGQGTTVTVSS VL: DIVMTQSPLSLPVTPGEPASISCRSSQGLVHSNRNTYLHWYQQKPGQAPRLLIYKVSNRFSGVPDRFSGSGSGTDFTLKISRVEAEDVGVYYCGQGTQVPYTFGQGTKLEIK | 0.8
CE115HA000/GLS3000 S27aI (antibody, IgG1, name in Kabat numbering, V domains shown, one-arm IgG1) VH: QVQLVESGGGVVQPGRSLRLSCAASGFTFSNAWMHWVRQAPGKGLEWVAQIKAKSNNYATYYAESVKGRFTISRDDSKNSLYLQMNSLKTEDTAVYYCRYVHYGAYYGVDAWGQGTTVTVSS VL: DIVMTQSPLSLPVTPGEPASISCRSSQILVHSNRNTYLHWYQQKPGQAPRLLIYKVSNRFSGVPDRFSGSGSGTDFTLKISRVEAEDVGVYYCGQGTQVPYTFGQGTKLEIK | 0.87
CE115HA000/GLS3000 S27aN (antibody, IgG1, name in Kabat numbering, V domains shown, one-arm IgG1) VH: QVQLVESGGGVVQPGRSLRLSCAASGFTFSNAWMHWVRQAPGKGLEWVAQIKAKSNNYATYYAESVKGRFTISRDDSKNSLYLQMNSLKTEDTAVYYCRYVHYGAYYGVDAWGQGTTVTVSS VL: DIVMTQSPLSLPVTPGEPASISCRSSQNLVHSNRNTYLHWYQQKPGQAPRLLIYKVSNRFSGVPDRFSGSGSGTDFTLKISRVEAEDVGVYYCGQGTQVPYTFGQGTKLEIK | 0.98
CE115HA000/GLS3000 S27aP (antibody, IgG1, name in Kabat numbering, V domains shown, one-arm IgG1) VH: QVQLVESGGGVVQPGRSLRLSCAASGFTFSNAWMHWVRQAPGKGLEWVAQIKAKSNNYATYYAESVKGRFTISRDDSKNSLYLQMNSLKTEDTAVYYCRYVHYGAYYGVDAWGQGTTVTVSS VL: DIVMTQSPLSLPVTPGEPASISCRSSQPLVHSNRNTYLHWYQQKPGQAPRLLIYKVSNRFSGVPDRFSGSGSGTDFTLKISRVEAEDVGVYYCGQGTQVPYTFGQGTKLEIK | 1.01
CE115HA000/GLS3000 S27aY (antibody, IgG1, name in Kabat numbering, V domains shown, one-arm IgG1) VH: QVQLVESGGGVVQPGRSLRLSCAASGFTFSNAWMHWVRQAPGKGLEWVAQIKAKSNNYATYYAESVKGRFTISRDDSKNSLYLQMNSLKTEDTAVYYCRYVHYGAYYGVDAWGQGTTVTVSS VL: DIVMTQSPLSLPVTPGEPASISCRSSQYLVHSNRNTYLHWYQQKPGQAPRLLIYKVSNRFSGVPDRFSGSGSGTDFTLKISRVEAEDVGVYYCGQGTQVPYTFGQGTKLEIK | 0.93
CE115HA000/GLS3000 S27eD (antibody, IgG1, name in Kabat numbering, V domains shown, one-arm IgG1) VH: QVQLVESGGGVVQPGRSLRLSCAASGFTFSNAWMHWVRQAPGKGLEWVAQIKAKSNNYATYYAESVKGRFTISRDDSKNSLYLQMNSLKTEDTAVYYCRYVHYGAYYGVDAWGQGTTVTVSS VL: DIVMTQSPLSLPVTPGEPASISCRSSQSLVHDNRNTYLHWYQQKPGQAPRLLIYKVSNRFSGVPDRFSGSGSGTDFTLKISRVEAEDVGVYYCGQGTQVPYTFGQGTKLEIK | 1.23
CE115HA000/GLS3000 S27eE (antibody, IgG1, name in Kabat numbering, V domains shown, one-arm IgG1) VH: QVQLVESGGGVVQPGRSLRLSCAASGFTFSNAWMHWVRQAPGKGLEWVAQIKAKSNNYATYYAESVKGRFTISRDDSKNSLYLQMNSLKTEDTAVYYCRYVHYGAYYGVDAWGQGTTVTVSS VL: DIVMTQSPLSLPVTPGEPASISCRSSQSLVHENRNTYLHWYQQKPGQAPRLLIYKVSNRFSGVPDRFSGSGSGTDFTLKISRVEAEDVGVYYCGQGTQVPYTFGQGTKLEIK | 1.04
CE115HA000/GLS3000 S27eF (antibody, IgG1, name in Kabat numbering, V domains shown, one-arm IgG1) VH: QVQLVESGGGVVQPGRSLRLSCAASGFTFSNAWMHWVRQAPGKGLEWVAQIKAKSNNYATYYAESVKGRFTISRDDSKNSLYLQMNSLKTEDTAVYYCRYVHYGAYYGVDAWGQGTTVTVSS VL: DIVMTQSPLSLPVTPGEPASISCRSSQSLVHFNRNTYLHWYQQKPGQAPRLLIYKVSNRFSGVPDRFSGSGSGTDFTLKISRVEAEDVGVYYCGQGTQVPYTFGQGTKLEIK | 1.16
CE115HA000/GLS3000 S27eG (antibody, IgG1, name in Kabat numbering, V domains shown, one-arm IgG1) VH: QVQLVESGGGVVQPGRSLRLSCAASGFTFSNAWMHWVRQAPGKGLEWVAQIKAKSNNYATYYAESVKGRFTISRDDSKNSLYLQMNSLKTEDTAVYYCRYVHYGAYYGVDAWGQGTTVTVSS VL: DIVMTQSPLSLPVTPGEPASISCRSSQSLVHGNRNTYLHWYQQKPGQAPRLLIYKVSNRFSGVPDRFSGSGSGTDFTLKISRVEAEDVGVYYCGQGTQVPYTFGQGTKLEIK | 1.03
CE115HA000/GLS3000 S27eH (antibody, IgG1, name in Kabat numbering, V domains shown, one-arm IgG1) VH: QVQLVESGGGVVQPGRSLRLSCAASGFTFSNAWMHWVRQAPGKGLEWVAQIKAKSNNYATYYAESVKGRFTISRDDSKNSLYLQMNSLKTEDTAVYYCRYVHYGAYYGVDAWGQGTTVTVSS VL: DIVMTQSPLSLPVTPGEPASISCRSSQSLVHHNRNTYLHWYQQKPGQAPRLLIYKVSNRFSGVPDRFSGSGSGTDFTLKISRVEAEDVGVYYCGQGTQVPYTFGQGTKLEIK | 1.09
CE115HA000/GLS3000 S27eI (antibody, IgG1, name in Kabat numbering, V domains shown, one-arm IgG1) VH: QVQLVESGGGVVQPGRSLRLSCAASGFTFSNAWMHWVRQAPGKGLEWVAQIKAKSNNYATYYAESVKGRFTISRDDSKNSLYLQMNSLKTEDTAVYYCRYVHYGAYYGVDAWGQGTTVTVSS VL: DIVMTQSPLSLPVTPGEPASISCRSSQSLVHINRNTYLHWYQQKPGQAPRLLIYKVSNRFSGVPDRFSGSGSGTDFTLKISRVEAEDVGVYYCGQGTQVPYTFGQGTKLEIK | 1.05
CE115HA000/GLS3000 S27eK (antibody, IgG1, name in Kabat numbering, V domains shown, one-arm IgG1) VH: QVQLVESGGGVVQPGRSLRLSCAASGFTFSNAWMHWVRQAPGKGLEWVAQIKAKSNNYATYYAESVKGRFTISRDDSKNSLYLQMNSLKTEDTAVYYCRYVHYGAYYGVDAWGQGTTVTVSS VL: DIVMTQSPLSLPVTPGEPASISCRSSQSLVHKNRNTYLHWYQQKPGQAPRLLIYKVSNRFSGVPDRFSGSGSGTDFTLKISRVEAEDVGVYYCGQGTQVPYTFGQGTKLEIK | 1.32
CE115HA000/GLS3000 S27eL (antibody, IgG1, name in Kabat numbering, V domains shown, one-arm IgG1) VH: QVQLVESGGGVVQPGRSLRLSCAASGFTFSNAWMHWVRQAPGKGLEWVAQIKAKSNNYATYYAESVKGRFTISRDDSKNSLYLQMNSLKTEDTAVYYCRYVHYGAYYGVDAWGQGTTVTVSS VL: DIVMTQSPLSLPVTPGEPASISCRSSQSLVHLNRNTYLHWYQQKPGQAPRLLIYKVSNRFSGVPDRFSGSGSGTDFTLKISRVEAEDVGVYYCGQGTQVPYTFGQGTKLEIK | 1.06
CE115HA000/GLS3000 S27eM (antibody, IgG1, name in Kabat numbering, V domains shown, one-arm IgG1) VH: QVQLVESGGGVVQPGRSLRLSCAASGFTFSNAWMHWVRQAPGKGLEWVAQIKAKSNNYATYYAESVKGRFTISRDDSKNSLYLQMNSLKTEDTAVYYCRYVHYGAYYGVDAWGQGTTVTVSS VL: DIVMTQSPLSLPVTPGEPASISCRSSQSLVHMNRNTYLHWYQQKPGQAPRLLIYKVSNRFSGVPDRFSGSGSGTDFTLKISRVEAEDVGVYYCGQGTQVPYTFGQGTKLEIK | 1.11
CE115HA000/GLS3000 S27eN (antibody, IgG1, name in Kabat numbering, V domains shown, one-arm IgG1) VH: QVQLVESGGGVVQPGRSLRLSCAASGFTFSNAWMHWVRQAPGKGLEWVAQIKAKSNNYATYYAESVKGRFTISRDDSKNSLYLQMNSLKTEDTAVYYCRYVHYGAYYGVDAWGQGTTVTVSS VL: DIVMTQSPLSLPVTPGEPASISCRSSQSLVHNNRNTYLHWYQQKPGQAPRLLIYKVSNRFSGVPDRFSGSGSGTDFTLKISRVEAEDVGVYYCGQGTQVPYTFGQGTKLEIK | 1.01
